Results taken from US20250270341A1 (Alector, published 2025).

T1: Cyno CD98hc ECD Avi-His (cynomolgus macaque, UniProt P08195 105-529 (human entry))
T1 construct: biotinylated on the Avi tag where captured on streptavidin; also called Cyno CD98-AVI-His; Cyno CD98hc-AVI-His
T1 chain: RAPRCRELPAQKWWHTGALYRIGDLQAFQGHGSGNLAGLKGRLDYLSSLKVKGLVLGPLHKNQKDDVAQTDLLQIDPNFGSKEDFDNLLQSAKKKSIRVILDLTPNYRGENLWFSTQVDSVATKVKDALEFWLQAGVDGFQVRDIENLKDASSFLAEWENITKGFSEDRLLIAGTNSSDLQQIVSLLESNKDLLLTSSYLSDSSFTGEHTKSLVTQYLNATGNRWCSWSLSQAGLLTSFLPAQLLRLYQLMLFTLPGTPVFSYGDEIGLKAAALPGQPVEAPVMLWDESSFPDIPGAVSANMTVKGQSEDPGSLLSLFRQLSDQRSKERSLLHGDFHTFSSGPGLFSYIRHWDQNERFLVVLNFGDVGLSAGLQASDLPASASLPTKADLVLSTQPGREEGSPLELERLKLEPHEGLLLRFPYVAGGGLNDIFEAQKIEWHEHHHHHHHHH

T2: huCD98hc ECD Avi-His (human, UniProt P08195 105-529)
T2 construct: biotinylated on the Avi tag where captured on streptavidin; also called Human CD98-AVI-His; Human CD98hc-AVI-His
T2 sequence: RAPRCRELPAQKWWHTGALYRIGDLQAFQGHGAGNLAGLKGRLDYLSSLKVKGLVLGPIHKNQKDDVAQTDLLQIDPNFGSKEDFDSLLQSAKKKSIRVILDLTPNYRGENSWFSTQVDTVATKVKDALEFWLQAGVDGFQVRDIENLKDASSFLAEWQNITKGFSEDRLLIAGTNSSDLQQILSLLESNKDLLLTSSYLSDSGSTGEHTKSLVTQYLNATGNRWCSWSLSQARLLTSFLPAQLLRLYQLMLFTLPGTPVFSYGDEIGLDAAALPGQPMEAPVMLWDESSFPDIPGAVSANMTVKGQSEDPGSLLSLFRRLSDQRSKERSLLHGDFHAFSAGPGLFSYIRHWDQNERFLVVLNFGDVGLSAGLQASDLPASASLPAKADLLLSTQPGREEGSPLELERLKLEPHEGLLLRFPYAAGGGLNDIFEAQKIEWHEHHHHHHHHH


Experiments:
[1] = target: T1, Cyno CD98hc ECD Avi-His; experiment: SPR, Biacore T200, anti-kappa capture
Experimental: (§1) Binding kinetics of 2+1 anti-CD98hc bispecific antibodies to recombinant human and cynomolgus CD98hc ECD Avi-His were evaluated using a Biacore T200 instrument (Global Life Sciences Solutions USA LLC, Marlborough, MA). The 2+1 anti-CD98hc bispecific antibodies were prepared by diluting to 50 μg/mL in running buffer HBS-EP+ (Teknova) with 0.5 mg/mL BSA (MP Biomedicals) and captured by a goat anti-human kappa polyclonal antibody (Southern Biotech) surface that was prepared according to the instrument manufacturer's recommendations. Two independent experiments were performed as follows, resulting in an N of between one and […] determinations for each antibody. Estimates of affinity were generated by injecting each analyte over captured antibody on Flowcell 2, 3, or 4. CD98hc ECD Avi-His analytes were diluted with running buffer, in a series of five, three-fold serial dilutions starting from 600 nM. Analytes were injected without regeneration, from lowest to highest concentration, for 5 minutes each, and dissociation was followed for 15 minutes. After each analyte injection series, antibodies were regenerated with 10 mM glycine pH 2.0 buffer (Cytiva). Data were processed and analyzed using Biacore T200 BiaEvaluation software (Cytiva).
(§2) The equilibrium dissociation constants (KD) were calculated from the fitted association and dissociation rate constants (k-on and k-off) for 2+1 anti-CD98hc bispecific antibodies of the present disclosure binding to human and cynomolgus CD98hc ECD Avi-His. For measurements with N>1, means and standard deviation were calculated and measurements for all samples were combined and graphed using GraphPad Prism.

[2] = target: T2, huCD98hc ECD Avi-His; experiment: SPR, Biacore T200, anti-kappa capture
Experimental: as §1, §2

[3] = target: T1, Cyno CD98hc ECD Avi-His; experiment: SPR, Biacore T200, Protein A/G capture
Experimental: (§3) Binding kinetics of humanized anti-CD98hc antibodies were evaluated using the Biacore T200 (Cytiva). Briefly, IgGs were diluted to 10 μg/mL and captured using a Protein A/G (ThermoFisher, #21186) surface on a CM5 chip that was prepared by amine coupling according to the instrument manufacturer's recommendations. The captured antibodies were tested for their ability to bind human and cynomolgus monkey CD98hc as follows.
(§4) Each sample was injected for 2 minutes to allow association, followed by dissociation in buffer alone for 10 minutes. Each sample injection was followed by the regeneration of the chip with three 30-second injections of 10 mM glycine pH 1.7. Fresh antibody was captured at the beginning of each cycle.
(§5) Data were analyzed using Biacore evaluation software to generate kinetic constants. The equilibrium dissociation constants (KD) were calculated from the fitted association and dissociation rate constants (k-on and k-off) for each of the anti-CD98hc antibodies.

[4] = target: T2, huCD98hc ECD Avi-His; experiment: SPR, Biacore T200, Protein A/G capture
Experimental: as §3, §4, §5

| Binder | Kd [1] [nM] | Kd [2] [nM] | Kd [3] [nM] | Kd [4] [nM] |
| --- | --- | --- | --- | --- |
| CD98hc.04.064.1d (humanized, 2+1 format) (bispecific antibody, tested as 2+1 bispecific (scFv on an IgG)) scFv: QVQLVQSGAEVKKPGASVKVSCKASGYTFTSYWMNWVRQAPGQGLEWMGIIDPSDSETSYAQKFQGRVTMTVDKSTSTVYMELSSLRSEDTAVYYCARASYGKGYFDYWGQGTLVTVSSGGSEGKSSGSGSESKSTGGSDIVMTQSPDSLAVSLGERATINCKSSQSLLNNINQKNYLAWYQQKPGQPPKLLIYFASTRESGVPDRFSGSGSGTDFTLTISSLQAEDVAVYYCQQHYSSPFTFGGGTKVEIK | 360 | 24 | 1500 | 35 |
| CD98hc.04.064.4c (humanized, 2+1 format) (bispecific antibody, tested as 2+1 bispecific (scFv on an IgG)) scFv: QVQLVQSGAEVKKPGASVKVSCKASGYTFTSYWMHWVRQAPGQGLEWMGIIDPSDSETNYAQKFQGRVTSTVDKSISTAYMELSRLRSDDTVVYYCARASYGKGYFDYWGQGTLVTVSSGGSEGKSSGSGSESKSTGGSDIVMTQSPDSLAVSLGERATINCKSSQSLLNNINQKNYLAWYQQKPGQPPKLLIYFASTRESGVPDRFSGSGSGTDFTLTISSLQAEDVAVYYCQQHYSSPFTFGGGTKVEIK | 310 | 17 | – | – |
| CD98hc.04.064.4b (humanized, 2+1 format) (bispecific antibody, tested as 2+1 bispecific (scFv on an IgG)) scFv: QVQLVQSGAEVKKPGASVKVSCKASGYTFTSYWMNWVRQAPGQGLEWMGIIDPSDSETNYAQKFQGRVTSTVDKSISTAYMELSRLRSDDTVVYYCARASYGKGYFDYWGQGTLVTVSSGGSEGKSSGSGSESKSTGGSDIVMTQSPDSLAVSLGERATINCKSSQSLLNNINQKNYLAWYQQKPGQPPKLLIYFASTRESGVPDRFSGSGSGTDFTLTISSLQAEDVAVYFCQQHYSSPFTFGGGTKVEIK | 620 | 30 | – | – |

The next binders have a lower Kd [1] than those just listed; values first:

| Kd [1] [nM] | Kd [2] [nM] | Kd [3] [nM] | Kd [4] [nM] | Binder |
| --- | --- | --- | --- | --- |
| 160 | 12 | 340 | 18 | CD98hc.04.064.4d (humanized, 2+1 format) (bispecific antibody, tested as 2+1 bispecific (scFv on an IgG)) scFv: QVQLVQSGAEVKKPGASVKVSCKASGYTFTSYWMHWVRQAPGQGLEWMGIIDPSDSETSYAQKFQGRVTMTRDTSTSTVYMELSSLRSEDTAVYYCARASYGKGYFDYWGQGTLVTVSSGGSEGKSSGSGSESKSTGGSDIQMTQSPSSLSASVGDRVTITCRASQSLLNNINQKNYLAWYQQKPGKAPKLLIYFASSLQSGVPSRFSGSGSGTDFTLTISSLQPEDFATYYCQQHYSSPFTFGGGTKVEIK |
| 120 | 13 | 740 | 25 | CD98hc.04.064.1e (humanized, 2+1 format) (bispecific antibody, tested as 2+1 bispecific (scFv on an IgG)) scFv: QVQLVQSGAEVKKPGASVKVSCKASGYTFTSYWMHWVRQAPGQGLEWMGIIDPSDSETHYAQKFQGRVTMTVDKSTSTVYMELSSLRSEDTAVYYCARASYGKGYFDYWGQGTLVTVSSGGSEGKSSGSGSESKSTGGSDIVMTQSPDSLAVSLGERATINCKSSQSLLNNINQKNYLAWYQQKPGQPPKLLIYFASTRESGVPDRFSGSGSGTDFTLTISSLQAEDVAVYYCQQHYSSPFTFGGGTKVEIK |
